# Measured values reported in the supplement of paper PMC7125110.
# ± gives the standard error. For some of these results: Variants at the floor of the assay were thinned out.
# B1: glmS ribozyme (parent)
# chain: AUAAAAGCGCCAGAACUACAGAAAUGUAGUUGACGAGGAGGAGGUUUAUCGAAUUUUCGGCGGAUGCCUCCAAA
# How the values were obtained:
# Details in all cases: with glucosamine-6-phosphate
# [1] = variants of: B1; assay: kcat; higher = faster cleavage; RNA array
# Outline: (§1)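 Barcoded glmS ribozyme variants on sequenced MiSeq chips were transcribed in situ by E. coli RNA polymerase and tracked through a hybridised Cy3 probe at 37 °C. Glucosamine-6-phosphate (40 μM to 10 mM) in HEPES/KCl/Mg(OAc)2 buffer was flowed in, and tiles were imaged over ~14 h. Signals were normalised to baseline and to non-cleaving reference variants; per-tile medians were fit to one- or two-exponential decays to give kobs. kcat and KM came from weighted Michaelis–Menten fits across concentrations.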
# [2] = variants of: B1; assay: self-cleavage kobs at 160 uM GlcN6P; higher = faster cleavage; RNA array
# Outline: as §1
# [3] = variants of: B1; assay: self-cleavage kobs at 640 uM GlcN6P; higher = faster cleavage; RNA array
# Outline: as §1
# [4] = variants of: B1; assay: KM; higher = weaker cofactor use; RNA array
# Outline: as §1
# [5] = variants of: B1; assay: self-cleavage kobs at 40 uM GlcN6P; higher = faster cleavage; RNA array
# Outline: as §1
# [6] = variants of: B1; assay: self-cleavage kobs at 2500 uM GlcN6P; higher = faster cleavage; RNA array
# Outline: as §1
# [7] = variants of: B1; assay: self-cleavage kobs at 10000 uM GlcN6P; higher = faster cleavage; RNA array
# Outline: as §1
Variant,kcat [1] [s⁻¹],self-cleavage kobs at 160 uM GlcN6P [2] [s⁻¹],self-cleavage kobs at 640 uM GlcN6P [3] [s⁻¹],KM [4] [µM],self-cleavage kobs at 40 uM GlcN6P [5] [s⁻¹],self-cleavage kobs at 2500 uM GlcN6P [6] [s⁻¹],self-cleavage kobs at 10000 uM GlcN6P [7] [s⁻¹]
AUAAAAGCGCCAGAACUACAGAAAUGUAGUUGCCGAGGAGGAGGUUUAUCGAAUUUUCGGCGGAUGCCACCAAA,< 1e-05,< 1e-05,< 1e-05,,,,
AUAAAAGCGCCAGAACUACAGAAAUGUAGUUGACGAGGAGGAGGUUUAUCGAAUUUUCGGCGGGUGACUCCAAA,0.00338 ± 0.00073,0.000303 ± 4.4e-05,0.000794 ± 0.00012,1730 ± 520,9.53e-05 ± 1.7e-05,0.0018 ± 0.00034,0.00346 ± 0.00059
AUAAAAGCGCCAGUACUACAGAAAUGUAGUUGACGAGGCGGAGGUUUAUCGAAUUUUCGGCGGAUGCCUCCAAA,0.00121 ± 0.00019,7.69e-05 ± 1.2e-05,0.000203 ± 2.4e-05,2790 ± 700,2.83e-05 ± 7.2e-06,0.000537 ± 8.2e-05,0.000981 ± 9.1e-05
AUAAAAGCGCCAGAACUACAGAAAUGUAGUUGACGAGGAGGAGGUUUAUCGAGUUUUAGGCGGAUGCCUCCAAA,0.000622 ± 7.5e-05,5.7e-05 ± 1.3e-05,0.000129 ± 1.6e-05,2190 ± 460,,0.00036 ± 4.4e-05,0.0005 ± 5.8e-05
AUAAAAGCGCCAGAAUUACAGAAAUGUAGUUGACGAGGAGGAGGUUUUUCGAAUUUUCGGCGGAUGCCUCCAAA,0.000375 ± 9.7e-06,,7.24e-05 ± 1.5e-05,2630 ± 150,,0.000181 ± 4.1e-05,0.000297 ± 3.3e-05
AUAAAAGCGCCAGAACUACAGAAAUGUAGUUGACGAGGAGGAGGUUUAUCGAAUCUUCGGCCGAUGCCUCCAAA,1.58e-05 ± 2.1e-06,,,1220 ± 460,,,
AUAAAAGCGCCAGAACUACAGAAAUGUAUUUGACGAGGAGGAGGUUUAUCGAAAUUUCGGCGGAUGCCUCCAAA,0.00792 ± 0.0027,0.000284 ± 7.7e-05,0.00184 ± 0.0003,2360 ± 1100,0.000181 ± 1.9e-05,0.00361 ± 0.0006,0.0068 ± 0.00083
